Assay: soluble on expression in E. coli; label from the status in PepcDB or PDB records

Row | Sequence | soluble on expression in E. coli
1 | MGSDKIHHHHHHMGEKMLGIINATGSFPSLKKVTGHRSLAALPFGGRYRLIDFMLSNMVNSNIHSVAVFTSHKNRSLMDHVGSGKQWDLDRKRDGLFLFPPNCQCDQDEFGSFAHFRRHIDYFLRAREEYVVITNSHLVTALNFQAVLERHIHTAADITEVCHEGVSLQTYVLKKQLLLDLFDSYKDVEQYSLFDVVREKRGKSLHIATYEHTGYVAIIDSIESYYKHSLEILQPAIWKQLFKKEAPIFTKVKDEPPTRYVKGAVVKNTMIANGSIIEGEVENSVVSRSVKIGKGSIVRNSIIMQKSQIGDNCIIDGVIIDKDVKIGDGVVLKGNADEPYVVEKGSVQNSTINSYS | not soluble
2 | FLNTISTKDFKQKMADKTTGFVYVGRPTCEDCQAFQPILKKELEKRQPDQKMAYYNTDKASEKSRDDMIALLKKMDIDSVPTMVYLKDGKVASTYAATDEPAKLTNWMNKVSG | not soluble
3 | MSLADTIIKNAKIVDVYNARIIEGTLAIADSRFLGIDAAYTADNVINAHGQYVVPGLIDPHIHIESANVSPAVFGSLVTPHGTTTILADPHEIVNVAGMRGLEYMVASAKNTALDIKYTMPSCVPAANPTLETSGAVITADEIKQSYDQGLTYGLAEFMNYPGVVNADDGVLDELLVSLNARKMIDGHSPALHGQGLNAYAAAGVHNDHECTQVDEMLDRISRGMYVYLRYGTVSKNMPTLLKGVTPQNARFCCLCGDDLQSVTLRETGHLDESIRVAIQNGIDPLTAIQMATINTAQCTGLSDRGGIAPGLKADFLLVDDLEHFNVNQTFIDGQKIAANGAYLLPTDDSVAGFDDLLETVHLDNFSADQLKLNLTSDKAHVIGLQSISRTQNLVLPVAHDAEGDFHYKPSEDIVKVAVVERHHLTGNVGVGLLSGFGLQNGAIATSIGHDSHNLVVVGTNDADMVVAIDALKACQGGGVAVQNGQVIATLPFVIGGLMSTEPIDSLIAHQKAFNTICHEQLNVTAQFDPIMKLGAMPLDVIPNLRITDKGLVDVTKFEIIDINAEGHHHHHH | soluble
4 | MGSDKIHHHHHHMPASKIYLLDYGWLGGDIGWFLPGQLGGAMTNSERNPRRDWVEIPITGALIDHPDARILFDTGIAPDAMKTHERGLMEAFPITKMDDQNHIENQLKLIGLKPEDIDFVVISHLHLDHIGQAAVFKDSHVPIIVQKKELESALSLIWQGKSGAYDYSDLLPLKGAAWMPLDDPVFEIVDGVYAEFTGGHTAGHQVLTVKTEKGSMYTLTGDFLHLPKEYDVEAKGWLLSNATEWNSYIKKMKIREKARKQKLIISHDPGIWDKYPHAPKFVE | not soluble
5 | MYVDPKVTIETVKTLNTYLKTRAELRSTDHVVIAEKLDDNDKKATTRLKILTKFDEGRFGAIYMVQNESAVDNDVVSVGNSRFIMKTALRQLSSHQIVYRLSREITVLKTLWGQGNDPPPRVPPILHQGKILGVPFYVTSIFDVNLEKCREQMGGGTFCVQSAFHIAQEIFMALKFMHRRQLVHRDVKPTNIALSYQNRDQWYLIDYGDAISVGKKTPISPPDGVTLPFLSLEAHDLLVTSSYSSFQQDLESWFYVIVDLLKPLPWKDNNRIDKVALAKRDFMSRLPNNLTNLPSQILDIGQILKTESPYSEISKKLVEGLASVKTSSSEKWNPEWYDRSATRNLREKKIKNQPRSRESAEAEATAVQTTPTGSTELQNDRRDKSVYVSTIVTKVVDNRKKVSSSNSPTTVSTNKTAVIEDEEDVKKNSPIQKQQDRSVYFNDFPVAAVAQPETGKKKKYRYKMRKQ | not soluble
6 | MGSDKIHHHHHHMTKMLRTYKFRIYPTREQEEKLAKHFGHTRFVYNFFLNYANIIYRVMERPTYYNEWASVLVKLKKTNKYSWLNEVNSQALQQSLKDLERAFKNFFKKQAGYPKFKKKKFSRQTFRIPQHIQLYIKEDNPKYGCIFVPKFKEGIKVRLHRKLPKDGKIKQATFIKTATNKYYAAIVFEVQDAEVQNTSTGILGIDLGIKDTITLSDGKKYKMPDLSKYERQIKRLHRRLSRKQRGSKNWEKARLCLAKLYEKIVNIKNDWLHKITHDLVSESQAGKIVVEDLNIKGMVQNHRLARHIHMQSWRRFLELLEYKAKRCGIEVIKANRYYPSSQMCSECGYINKEVKDLSVREWTCPVCGAHHDRDVNAAKNLVRYGLMLSIGREPSEFTPVDSALAAEPERGLRAITG | not soluble
7 | MAHHHHHHMAPSELHKLSYWEEVYQGEKENYEEANIQPEEWFEENCDKIINWMSNHFSEEEKKEQVAILDVGCGNGLFLHKLHQRGFGNLCGFDFSASAIELAKKLFVGCGGEGEEDSRINRGEEPTDVYVQVLDIYNIEDEIKENSKLKKKYKLINDKGTFDIFFMNDKAQEYFKHVSFFFQVDTIFCLTSCNACKEELLSIVNHFNETNGKFQLTLFDEIRYESITFGGVKGQIITTLIFACS | soluble
8 | MPSPSPKGLPVKQYAVQSQLPVYEWPDVGSGEYDVGVVASFGRLLNEALILKFPYGILNVHPSCLPRWRGPAPVIHTVLHGDTVTGVTIMQIRPKRFDVGPILKQETVPVPPKSTAKELEAVLSRLGANMLISVLKNLPESLSNGRQQPMEGATYAPKISAGTSCIKWEEQTSEQIFRLYRAIGNIIPLQTLWMANTIKLLDLVEVNSSVLADPKLTGQALIPGSVIYHKQSQILLVYCKDGWIGVRSVMLKKSLTATDFYNGYLHPWYQKNSQAQPSQCRFQTLRLPTKKKQKKTVAMQQCIE | soluble
9 | MQFSYVNPTMIHFGQGQIASIRRDIPKDHKVLVLYGGGSIKRNGVYDQVVEALSEHQWVEFSGVEPNPTKETLDKAVHIVKNQHIDFILAVGGGSVIDGSKYVAAAAFYEGDGWDILTGQHTVKQATPIGAILTLPATGSESNTGAVITKAETQDKLAFLSPAVQPRFAVLDPDVMKSLPERQLVNGLVDAWVHVCEQYLTLPTQAMVQEGYAEVLLRNLLALGADFVNRDNDAWRANLMWTANQALNGLIGTGVPQDWATHMIGHELTALWHVDHARSLAIVQPWLLRNQLKHKKAKLEQMGKNVFGLPQSDDLAEKTIAAIEAFYHQLNVATQFGEHGMAKEAAVDAVLQQLTAHGMHKLGEQGTIDLQESRKILENALY | not soluble
10 | MQKSIDDMINEVLAVKVEKLPKTQDFSDLQEVCASKLQIINKEMDEADRKLEETLEKRKLVEKQLEDLQEQYKVKEFAFSLQKEFQDELKKVAEEIF | not soluble
11 | MTEALEQPLRRILSYWRNEIKPLLDAETGTLFKQAPIRVTLAFPNRYSVGMASLGYQVIYRMFNQEEGVACERAFLPDDVDAFERTGQALPTVESGRAAGDCELFSISVSFELDLTNIIRLIDVAGMNPLREERDETDPVVMIGGPLTSSNPYPLTPFADIIIIGDGEQIVPVVSEALRESSSREDFYDLIDGVPGVFLPARHVHEPTWATAPKELLPAYSQIVTPHSELSNMFLVEAQRGCPRPCTFCLARTMYGPNRNNQAQELLDVIPDWVEKVGLVGAALSDFPHTKFVGKTLTERGVKLGVSSIRADTVDAELAEILKAGGLRTFTVASDAPSERLRRWLKKGITTEDLLKTAQISRDLGFSGLKVYMMIGLGPENDDDITELISFTKELAGINRIALGISPFVPKRHTPHFADPFAGVQTIEKRLKRIQKELRTTAELRNVSAKWAWVESVIARGGPEVGMAAYQIYRNESIGAWKKALDEVGWQDDFEANTPSIGLPPGQYESKEVSAHAQGLAVLEHHHHHH | soluble
12 | MSRNHFNELSPCEALIMKLIWEAPQDIPVQELIDQLRDDYGKEYARTTVVTFVGKLKDKRFVDTYRKGKSAFIHPLRSEEEYRRQLLKEEADFWFNGKAVDMVASICESQKLEDDEIKRIKKILNGLNK | not soluble
13 | RKPLQEPCTIFLIANGDLINPASRLLIPRKTLNQWDHVLQMVTEKITLRSGAVHRLYTLEGKLVESGAELENGQFYVAVGRDKFKKLPYGELLFD | soluble
14 | MQPQKNVTNKIAIHATTATVWDALVNPAKTKVYMFGCETVSDWKVGSELLWRGQHEGEDMVFVKGKILAIKPNKLLTYTVIDPFASYPDIPENYLNVTYKLEEQGPDTILTVTQDGFESAADGEKRYQDVNNKGEGWNPILVQIKALVESIQNLEHHHHHH | soluble
15 | MKTVGVVLSGCGVLDGAEIHESVLTMLALDRAGAEVLFFAPDKPQLHVINHITGEIVAEERNVLVESARIARGLITPLSAADPEVLDALIVPGGFGAAKNLCDFAIKGGECSVEPDLYKLIQLMHKSGKPIGLMCISPVMLPKLLGKPIRLTIGNDPDTIDAIEIMGGEHVICPADDVVIDLENKVVTTPAYMLAGSISEAAKGIDKLVTKVLDLTE | not soluble
16 | MHEYSIVSALIEQCEQYAKANQATKVTRVEIKLGVMSGVEPALLQTAFETFKLDGICREAKLCMTLQPLVIKCADCQQESVLDERSIVCPACNSYHTRVLDGEEMLLMQLEMEQAEDA | soluble
17 | VGDFNYYASANWSCEQSKVLYKDEQKVPYEYLRTTGKPKGAIFGLVAEGFFTSQDEITKSPVIEGFNNIQPGDIKYKDQNNDGVINDFDKVMIGGDKPLSYFGIDLGFEWRGLEFSMFWQGVYNKDVLMSDWNLLEGFQTQGQVYGQAYENMLDRWTPETAATATFPRLSAGGNKYNQGNGWGSSFWLRSGNYIRLKNVSLGYNLPDSFCRNYLGGARVKVFVSGQNLFTKAANELVDPEVSFGNYPLQRCISTGINVKF | not soluble
18 | YNIYNNPKEANNRKDTVLYLMHKHNRINDKQYADAKKIDLKANLVERTKKERQVTGNEKNPEYDSYVNFVQSELMNNKYFKDKNLGSVLQSG | not soluble
19 | MAHHHHHHMLKHKYNDSCVQELFYKNNIKLIAIDIDGTLADDTGKISDENLKAIEVCKKGGIEIILASGRLHSYAMKMFTNEQIEKYKIEKLDGVYSHGAYIHMKGYDYVYRKFSYKDLELILFSLGSYNILRNAVFLTVDSAYVINDDIKLIEEYIYTPESEGIISDIEYVKIIDTNYKPILINKIKDIFNIGDIVSIEIYDKLYPNQDIYSDLFKVLFYELQPHYKIYIPSSNNKIVLSPINTAKVHTTQLYAQFYRINLNNILSIGNDDNDIELLSSTGFSVAVKNSTPRALQVARCVSTKTNNENAVANIIYRVLSGRRS | not soluble
20 | MDFLERLKSLWPDNAKPADFYNKIDMSASGFSRVWKDGAIPTADYLIKIQEVTGCDLNWLLTGQGSPYMNKGQAVEVRTHTDGTATDTLGNP | not soluble
21 | MQRVTITLDDDLLETLDSLSQRRGYNNRSEAIRDILRSALAQEATQQHGTQGFAVLSYVYEHEKRDLASRIVSTQHHHHDLSVATLHVHINHDDCLEIAVLKGDMGDVQHFADDVIAQRGVRHGHLQCLPKED | soluble
22 | SASVRIREAKEGDCGDILRLIRELAEFEKLSDQVKISEEALRADGFGDNPFYHCLVAEILPAPGKLLGPCVVGYGIYYFIYSTWKGRTIYLEDIYVMPEYRGQGIGSKIIKKVAEVALDKGCSQFRLAVLDWNQRAMDLYKALGAQDLTEAEGWHFFCFQGEATRKLAGK | soluble
23 | MQTSAQKVIQDLTNRVQAEKEELEQLERERDLWKYNAQMNDKEALRGNERKKNIMKKGGPLCYFCNKNHVPSLCRTYPDGISRQKSLENQGKCIKCLKIGHQNGDNFCEKHHIVCRTCQQSHVKAVCPILYPKKDTPPKILRARRRSLIRAQKKKDFQEPENKHEQLTSTKAPCQENWSDF | not soluble
24 | MKKEPKGAKNRIVIAKDEKNVLTCTSEGFEYTPDIVKNVYGKSSRPALEDWFLTELDFFRRYYPGYEVFTLGSSCVFGEKFVNYLTICEFDIDSTYAFDCLKKALRESDQAIRRKLSAMWKWDIAARKDWSIVFMVGHMDFAYFLQHRKEFQEDAHKRFMSTFTTAETKITSRDYKVMHDGAILPFDETALSPEDRFIFENYQKIKFETTPL | soluble
25 | MNEKQKRFADEYIMNGCNGKKAAISAGYSKKTAESLASRLLRNVNVSEYIKERLEQIQEERLMSITEALALSASIARGEPQEAYSKKYDHLNDEVEKEVTYTITPTFEERQRSIDHILKVYGAYIDKKEITQKNIEINIGEYDDES | not soluble

Source: the DeepSol protein solubility set
